Experimental data from the supplement of paper PMC7877785.
± gives the uncertainty stated by the source.

Test: self-splicing fitness, log relative to wild type (ln ratio); higher = more splicing; Tetrahymena group I intron in knt gene, E. coli kanamycin selection, DiMSum; sequences stand for … in CUCUCU…GGAGGGAAAAGUUAUCAGGCAUGCACCUGGUAGCUAGUCUUUAAACCAAUAGAUUGCAUCGGUUUAAAAGGCAAGACCGUCAAAUUGCGGGAAAGGGGUCAACAGCCGUUCAGUACCAAGUCUCAGGGGAAACUUUGAGAUGGCCUUGCAAAGGGUAUGGUAAUAAGCUGACGGACAUGGUCCUAACCACGCAGCCAAGUCCUAAGUCAACAGAUCUUCUGUUGAUAUGGAUGCAGUUCACAGACUAAAUGUCGGUCGGGGAAGAUGUAUUCUUCUCAUAAGAUAUAGUCGGACCUCUCCUUAAUGGGAGCUAGCGGAUGAAGUGAUGCAACACUGGAGCCGCUGGGAACUAAUUUGUAUGCGAAAGUAUAUUGAUUAGUUUUGGAGUACUCGUGGUCG
How it was run: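 DiMSum derived fitness as the error-weighted combination of fold changes across replicates, kanamycin versus no kanamycin, normalised to wild type. E. coli BL21(DE3) held the library, which randomised all eight P1ex-region intron nucleotides within the knt kanamycin-resistance gene on pET-22b(+). Six replicate transformations grew overnight at 37°C or 30°C on LB agar with or without 25 μg/mL kanamycin, also containing 100 μg/mL carbenicillin, 50 μM IPTG and 0.2% rhamnose, and pooled colonies were amplicon-sequenced on an Illumina HiSeq 2500.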

Row | Sequence | self-splicing fitness (ln) (30 °C) | self-splicing fitness (ln) (37 °C)
1 | AUCAAGCAAUAUUACGCCUA | -0.765 ± 0.11 | -0.646 ± 0.095
2 | CAUUAGCAAUAUUACGCGCU | -2.9 ± 0.21 | -1.51 ± 0.26
3 | CACAAGCAAUAUUACGAAUA | -2.08 ± 0.27 | -2.71 ± 0.23
4 | CCGUAGCAAUAUUACGCCGG | -2.94 ± 0.49 | 
5 | GGGCAGCAAUAUUACGGUAC | -1.73 ± 0.097 | -0.144 ± 0.1
6 | CCAUAGCAAUAUUACGAGUU | -3.76 ± 0.36 | -2.1 ± 0.31
7 | UAUCAGCAAUAUUACGUACG | -0.641 ± 0.087 | 0.404 ± 0.11
8 | UGUGAGCAAUAUUACGUAUG | -1.22 ± 0.1 | -1.26 ± 0.12
9 | GCAGAGCAAUAUUACGGUGG | -3.65 ± 0.33 | -2.21 ± 0.21
10 | CACUAGCAAUAUUACGGACA | -1.84 ± 0.16 | -1.99 ± 0.18
11 | UCCGAGCAAUAUUACGAUAA | -2 ± 0.22 | -2.41 ± 0.32
12 | CAAUAGCAAUAUUACGAACC | -2.22 ± 0.35 | 
13 | GGUCAGCAAUAUUACGUGCA | 0.0844 ± 0.11 | 0.539 ± 0.15
14 | AGUUAGCAAUAUUACGAAUU | -1.62 ± 0.11 | -0.649 ± 0.12
15 | GCUAAGCAAUAUUACGGUAC | -1.47 ± 0.1 | -1.65 ± 0.2
16 | GACUAGCAAUAUUACGAUUC | -0.598 ± 0.065 | -0.35 ± 0.072
17 | UAUAAGCAAUAUUACGUACC | -2.51 ± 0.19 | -1.2 ± 0.16
18 | AGAUAGCAAUAUUACGAGAU | -3.02 ± 0.25 | -1.69 ± 0.27
19 | GAUGAGCAAUAUUACGCGGC |  | -2.77 ± 0.38
20 | AGUCAGCAAUAUUACGUGCC | -1.02 ± 0.077 | 0.0632 ± 0.095

Row | Sequence | self-splicing fitness (ln) (30 °C) | self-splicing fitness (ln) (37 °C)
21 | ACUGAGCAAUAUUACGAAUG | -3.69 ± 0.4 | -1.89 ± 0.22
22 | GCCCAGCAAUAUUACGACCA | -1.44 ± 0.19 | -0.385 ± 0.23
23 | AUCUAGCAAUAUUACGCCAU | -2.72 ± 0.2 | -1.05 ± 0.15
24 | CUAGAGCAAUAUUACGGUGG | -0.455 ± 0.06 | -0.563 ± 0.089
25 | CUUGAGCAAUAUUACGUAAG | -1.68 ± 0.1 | -0.582 ± 0.13
26 | CCGUAGCAAUAUUACGCGCG | -2.15 ± 0.17 | -0.999 ± 0.18
27 | GAAUAGCAAUAUUACGUGGA | -3.38 ± 0.25 | -1.17 ± 0.15
28 | UACUAGCAAUAUUACGUCUC | -3.59 ± 0.32 | -2.93 ± 0.31
29 | CAGUAGCAAUAUUACGGGUU | -2.49 ± 0.18 | -1.82 ± 0.2
30 | CGUGAGCAAUAUUACGUGUC | -3 ± 0.4 | -3.04 ± 0.43
31 | UGGAAGCAAUAUUACGACUU | 0.319 ± 0.15 | 0.0401 ± 0.17
32 | UUUCAGCAAUAUUACGCCUU | -1.58 ± 0.2 | -0.883 ± 0.2
33 | GAGUAGCAAUAUUACGUUGC | -3.27 ± 0.23 | -1.79 ± 0.27
34 | GAAAAGCAAUAUUACGAUGA | -0.7 ± 0.1 | -0.295 ± 0.11
35 | UGAGAGCAAUAUUACGACAG | -4.41 ± 0.39 | -3.07 ± 0.34
36 | UAGCAGCAAUAUUACGGACG | -0.528 ± 0.08 | -0.837 ± 0.1
37 | GCUAAGCAAUAUUACGGUGG | -3.83 ± 0.23 | -1.82 ± 0.21
38 | ACUUAGCAAUAUUACGUAUA | -3.22 ± 0.14 | -2.41 ± 0.16
39 | AUCCAGCAAUAUUACGGAUU | -3.25 ± 0.12 | -2.83 ± 0.21
